The results in this text go back to paper PMC8523169, “Competitive binding of MatP and topoisomerase IV to the MukB hinge domain” (eLife, 2021).

Data set [1] concerns the molecule itself. The experiment in a line: native MS; proteins buffer exchanged into 200 mM ammonium acetate pH 8.0, alone or mixed in different ratios (two or three components, with or without 50 bp DNA), 10 min on ice.
The target of data set [2] is T1, MatPΔ18C (1–132), C-terminal 6xHis-tag (E. coli, UniProt P0A8N0 1-132).
T1 construct: MatP, E. coli, residues 1-132 (deletion of the 18 C-terminal residues); also called MatPΔ18C-His; MatP2; source: overexpressed, purified as previously published (Nolivos et al., 2016) with an added SEC step; not shown: His6, C-terminal, kept
T1 sequence (looked up): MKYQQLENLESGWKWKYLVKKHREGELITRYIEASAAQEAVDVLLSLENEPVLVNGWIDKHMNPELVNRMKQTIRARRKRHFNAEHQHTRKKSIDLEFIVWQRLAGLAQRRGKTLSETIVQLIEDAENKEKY
The description is as above. The note with it: both partners purified.

Data set [3] concerns the target T2, full-length ParC, N-terminal 6xHis-tag (E. coli, UniProt P0AFI2 1-752).
T2 construct: ParC subunit of topoisomerase IV, E. coli, full length; also called His-ParC; ParC2; source: overexpressed, purified as previously published (Nolivos et al., 2016) with an added SEC step; not shown: His6, N-terminal, kept
T2 sequence (looked up): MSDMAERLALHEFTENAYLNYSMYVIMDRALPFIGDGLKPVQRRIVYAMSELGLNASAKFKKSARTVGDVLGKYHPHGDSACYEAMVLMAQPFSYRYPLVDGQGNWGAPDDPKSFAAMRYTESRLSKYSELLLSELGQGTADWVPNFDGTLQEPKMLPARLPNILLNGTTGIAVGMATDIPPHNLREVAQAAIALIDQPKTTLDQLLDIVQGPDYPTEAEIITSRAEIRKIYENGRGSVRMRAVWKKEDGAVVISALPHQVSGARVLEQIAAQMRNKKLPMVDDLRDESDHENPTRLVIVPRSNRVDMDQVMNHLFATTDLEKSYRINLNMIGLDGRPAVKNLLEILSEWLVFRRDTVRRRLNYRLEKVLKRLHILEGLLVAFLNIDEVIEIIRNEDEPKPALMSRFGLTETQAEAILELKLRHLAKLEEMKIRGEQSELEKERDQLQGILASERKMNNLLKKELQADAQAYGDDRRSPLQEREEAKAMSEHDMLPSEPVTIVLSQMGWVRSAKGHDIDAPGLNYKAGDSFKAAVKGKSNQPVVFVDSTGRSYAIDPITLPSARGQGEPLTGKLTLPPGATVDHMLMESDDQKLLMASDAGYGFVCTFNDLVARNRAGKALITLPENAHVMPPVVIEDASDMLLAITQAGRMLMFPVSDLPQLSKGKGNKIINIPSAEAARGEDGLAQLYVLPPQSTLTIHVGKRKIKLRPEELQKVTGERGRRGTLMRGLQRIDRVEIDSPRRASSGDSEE
The experiment in a line: SEC; topoIV reconstitution: equimolar ParC and ParE, 30 min on ice, verified in analytical SEC. The note with it: both partners purified. (In general: In gel filtration, larger molecules generally elute earlier.)

Where a chain is given by its changes, count along the chain named. Numbers in names are those of the source.

B1: MatP^4E (K71E, Q72E, R75E, and R77E) (domain or fragment, E. coli, UniProt P0A8N0 1-132, looked up)
chain: T1 sequence (looked up) with K71E, Q72E, R75E, R77E
notes: MatP, E. coli, residues 1-132 (MatPΔ18C) with four substitutions; also called MatP K71E, Q72E, R75E, R77E; source: site-directed mutagenesis, purified using the same protocol as MatP
Consider B1, for which, in data set [1], the stoichiometry N (commonly the number of molecules, sites or subunits per partner or assembly) was found to be 2.

B2: MukB short hinge (SH; amino acid residues 667–779) (domain or fragment, E. coli, UniProt P22523 667-779, looked up)
chain: GGSEDQRLNALAERFGGVLLSEIYDDVSLEDAPYFSALYGPSRHAIVVPDLSQVTEHLEGLTDCPEDLYLIEGDPQSFDDSVFSVDELEKAVVVKIADRQWRYSRFPEVPLFG
notes: MukB, E. coli, residues 667-779: hinge lacking the entire coiled-coil; Monomer/dimer mix at tens of µM by nMS; also called SH-His; SH MukB; source: overexpressed, purified (TALON, HiTrap Q XL, SEC); not shown: His6, C-terminal, kept
In the case of B2, in data set [2], the binding result is “binds”. For the same molecule, the “stoichiometry N” value in data set [1] worked out at 2.

B3: ParE-His (enzyme, E. coli, UniProt P20083 1-630, looked up)
chain: MTQTYNADAIEVLTGLEPVRRRPGMYTDTTRPNHLGQEVIDNSVDEALAGHAKRVDVILHADQSLEVIDDGRGMPVDIHPEEGVPAVELILCRLHAGGKFSNKNYQFSGGLHGVGISVVNALSKRVEVNVRRDGQVYNIAFENGEKVQDLQVVGTCGKRNTGTSVHFWPDETFFDSPRFSVSRLTHVLKAKAVLCPGVEITFKDEINNTEQRWCYQDGLNDYLAEAVNGLPTLPEKPFIGNFAGDTEAVDWALLWLPEGGELLTESYVNLIPTMQGGTHVNGLRQGLLDAMREFCEYRNILPRGVKLSAEDIWDRCAYVLSVKMQDPQFAGQTKERLSSRQCAAFVSGVVKDAFILWLNQNVQAAELLAEMAISSAQRRMRAAKKVVRKKLTSGPALPGKLADCTAQDLNRTELFLVEGDSAGGSAKQARDREYQAIMPLKGKILNTWEVSSDEVLASQEVHDISVAIGIDPDSDDLSQLRYGKICILADADSDGLHIATLLCALFVKHFRALVKHGHVYVALPPLYRIDLGKEVYYALTEEEKEGVLEQLKRKKGKPNVQRFKGLGEMNPMQLRETTLDPNTRRLVQLTIDDEDDQRTDAMMDMLLAKKRSEDRRNWLQEKGDMAEIEV
notes: ParE subunit of topoisomerase IV, E. coli; source: overexpressed, purified (TALON, HiTrap Q XL, SEC)
Consider B3, for which the binding result in data set [3] was “binds”. Further, the “stoichiometry N” value in data set [1] turned out to be 2.

B4: His-ParC R705E R729A (enzyme, E. coli, UniProt P0AFI2 1-752, looked up)
chain: T2 sequence (looked up) with R705E, R729A
notes: ParC, E. coli, full length, with two substitutions; also called ParC^EA; source: site-directed mutagenesis, purified using the same protocol as ParC; not shown: His6, N-terminal, kept
As for B4, the “stoichiometry N” value in data set [1] is 2.
